# Assay: soluble on expression in E. coli; label from the status in PepcDB or PDB records
row,Sequence,soluble on expression in E. coli
1,MSLSHVLQELRDVRQASHKVSQGARVLFPCELLSALSLLQTSAQASYQAVVETGLGLARGLREQILKAAAILGVADPSGIYIQPEDEHRLDVVGRLFEAMLRDSCLYPQSRVWIGHLLVPVAKVALRDSCLLETDHHPVWRLLMLLVDACNGNKGEDPAEHALLMQVRETVETVVREFDDDVTLFQTQQAALSMHYEQYVAKTRNTQRHVAECEITEERRQQAQRVADDALKQCLLGHVLPQQIEHFLRRIWCAHVQQVALLNDDNGQALKAVLALGDALLVQWRQASEGSIPERPWLYEERAGILEAFCIAGMTLVEAEAGFANLQHVLAAATPQSSVIATSTQTQSFDTFISVPDTSATSELNTASPSYFRELPLGTWLDFIGIDGRIQSGQLSWVSPISGRLMFVNHRGRRLCVTAPEELSTLMCLGRLRLHRAGDSLMSEGHHHHHH,not soluble
2,MSLSKNVTYEGIYVENINVSNLNEKDLKEKLNEHYSDLLNNFKITFNYKDNFNETFSAKDLGFFFDINDLSNQVFSFGKNSNIFSNTIERLKLKSNPKYFQFKPESNSEVLSEKLSEISNKINKEKVEPTISFSNDSISATKEQIGYKLDLEKLTSEIVNDLNNSHDSLNCTINIPVEEIKPKLTQETVNNMVILGSYTTKLPSLTGGRTKNISNYLSKLNGTILMPGDIFSADKEGEDRTESNGYTYAPGYIGNKVVDILAGGICQGVTTLYNSVLYADLKIVERAPHSLPVTYAPIGRDATMASGVIDFKFQNNMNNPVIVQTYITSSGQVKSNIWGIKEDPGKEIVISVDQHGPKSSTTYKETYENGVLVKKEVLSKDKYNEGHHHHHH,soluble
3,MSLSKRSIPNVDWANQLENAIRQFVKEKLELIMREEIKNFLEIEQAGTPNMRNGYYQRNLDTQYGRIEGLLVPRDRNGEFQTQLFAPYQRHTGWLEEAIIRMYQSGMSTREIGKFIERILGSTYSPATISRITDVVKEDIEKWHARPLHQRYSVLYLDGLYVKLRRDTVEKEVIYVVLGVNEEGYREILDFFVGGQESAYVWQEILQQLYKRGVKEVLLGVFDGLPGLEEAFKAVYPKADVQRCVVHKVRNTLSRVRKKDQFEMAEDLKLIYRSPNKEIALEMFQQFQSKWSHKYPREVQSWANELDVLLTFMDYPSSIRSVIYTTNAIERTIKEIRKRLKPMNSLSSLEAAEKVVYLTIQDFNEKWAGRKLRGFAEAQEALQRMFEEREGHHHHHH,not soluble
4,MSLSKSDDGDSEESFSISVQSGFEAMSQELCIVMCLKDLTSIVDIKTSSRPAMIGSLTDGSTETFWESGDEDKNKTKNITINCVKGINARYVSVHVDNSRDLGNKVTSMTFLTGKAVEELCRIKQVDLDSRHIGWVTSELPGGDNQIIKIELKGPENTLRVRQVKVLGWKDGESTKIAGQISASVAQQRSCEAETLRVFRLITSQVFGKLISGDAEEGHHHHHH,soluble
5,MSLSKTYHFIGIKGSGMSALALMLHQMGHKVQGSDVEKYYFTQRGLEQAGITILPFDEKNLDGDMEIIAGNAFRPDNNVEIAYADQNGISYKRYHEFLGSFMRDFVSMGVAGAHGKTSTTGMLSHVLSHITDTSFLIGDGTGRGSANAKYFVFESDEYERHFMPYHPEYSIITNIDFDHPDYFTSLEDVFNAFNDYAKQITKGLFVYGEDAELRKITSDAPIYYYGFEAEGNDFVASDLLRSTTGSTFTVHFRGQNLGQFHIPTFGRHNIMNATAVIGLLYTAGFDLNLVREHLKTFAGVKRRFTEKIVNDTVIIDDFAHHPTEIIATLDAARQKYPSKEIVAVFQPHTFTRTIALLDDFAHALNQADAVYLAQIYGSAREVDHGDVKVEDLANKINKKHQVITVENVSPLLDHDNAVYVFMGAGDIQTYEYSFERLLSNLTSNVQEGHHHHHH,soluble
6,MSLSKVFTIGEILVEIMASKIGQPFDQPGIWNGPYPSGAPAIFIDQVTRLGVPCGIISCVGNDGFGDINIHRLAADGVDIRGISVLPLEATGSAFVTYHNSGDRDFIFNIKNAACGKLSAQHVDENILKDCTHFHIMGSSLFSFHMVDAVKKAVTIVKANGGVISFDPNIRKEMLDIPEMRDALHFVLELTDIYMPSEGEVLLLSPHSTPERAIAGFLEEGVKEVIVKRGNQGASYYSANEQFHVESYPVEEVDPTGAGDCFGGAWIACRQLGFDAHRALQYANACGALAVTRRGPMEGTSRLMEIETFIQRHDMSIREAAQEGHHHHHH,soluble
7,MSLSMSTIAKVAARAGVSPTTVSHVINHSDRVSKPLRERVEAAIKDLGYKPNPQAQSLRTGRTNIVAMLIPDIRNPFYPELVKAAQSELEVAGLDMLIFNTDVPGGQSQDHGREYLRQIGNKRVDGLIVGDFALHGMHDALMRVETPTVFIGNLPNHAVDCVRIDDFGGGYQMGAYLAGKGHRRIAHVTGPSFFAEAMSRADGFEQGLADHGATPDPGLRFEGSYLAPSGKAAAEWLLAGHGGDLPSAVFFGNYLMAAGALAEFYDRGIRIPDDFKVAVFGDQPQLEYVRPRLTRVGNAPAELARRATRMLLERINGTYEGEPRSEVVSCVLREFETEGHHHHHH,soluble
8,MSLSNIETVPASIEMKPNPTITVFERSPDGGRGLARDMPVRWALEEVGQPYHVRRLSFEAMKEASHLAYQPFGQIPSYEQGDLILFESGAIVMHIAQHHSGLLPEDQLRRARTVAWMFAALNTIEPSILNFTTVWLFERNEPWHEARLARTKEQLLKRLDELSAWLGDREWLEGSFSAADILMICVLRRLESSGILKDYGNLLAYVERGKARPAFKRAFDAQLAVFTAASKNEGHHHHHH,soluble
9,MSLSPAQLAAVRRSFRNGRASLTRRSLLRASAGGALAVGGLGALSACGIPAAGRTEGGVSAEDHSAEEKTINFSNWPEYIDVDDSGKRHPTLDAFAKRTGIQVKYTEDINDNDEFFGKIQPQLAAGQSTGRDLIVLTDWLAARMIRLGYVQKLDPSHLPHAFANLSDQFRAPDWDPGRAYSYPWQGISTVIAYNKKALDGVEVKSVSDLLDNPKLKGRVGFLTEMRDSVGMTMLDMGKDPAKFTDDDYDAVIARLQKAVDKGQIRRFTGNDYTSDLSKGDFAACIAWAGDIVQLQADNPDVGYVIPDSGYMTSTDNMLIPNKARHKTNAERLIDYYYELEPAAELAAYINYVSPVAGVQPYLAKIDKSAADNPLIVPDKAMQAKSHAFRSLSSKEETAYQQKFAKLTGAEGHHHHHH,soluble
10,MSLSQCQTLLSQINRRIESYENIPVFSFAQKLPLFDSNSTKLKLNSQTNEMMMELLSLVEQNKGKKILIVGHSDNTGSSSMNMTLSEQRALALRDWLIKRSDITVDNFITKGMGASEPVATNHTEAGREQNRRVEVLILPTQDRTRMTEPKPLEGHHHHHH,soluble
11,MSLSQSALSELLEAFRAGDGVDLICESVRVALQDLIQLEASERIGAAPYERTDARVSERNGHRPRVLTTKAGDVELRIPKLRKGSFFPVILEPRRRIDQALYAVVMEAYVHGVSTRSVDDLVEAMGVDAGISKSEVSRICAGLDEQVGAFRTRALDHTEFPYVYLDATYLNVRNTTGQVTSMAVVVATGIAADGSREVLGLDVGDSEDETFWRGFLTALKQRGLHGVQLVISDQHAGLVKALRRSFQGAGHQRCRVHFARNLLAHVPKSHGDMVAAVFRTIFAQPDAAAVSHAWDEVRDQLAKSFPKIGPLMDEAKAEVTAFTVFPRAHWQKIWSTNPLERSTRRSSDAPGWSGSEGHHHHHH,soluble
12,MSLSRLILIESNKNTRGTPWISIPVRNGVFEYDFYTDHEKAYELICWDDLLNGCWYPVTFFAENGTVSFTISAIDARPPYRIETLNSLTTALRLFEAEGKDKFSFDELNARRDTLEKYGRFESEAMQALWKKFDQVKDNPEERNKLFRERDRLEESGEAFTKEAKALIKEREQLFRKKVIWETEQASQHPSLVGLFILKMKVENARKDEDVTPYLEAFQKVYASRYPEHPYTREMQMFIDNNQPKTGNRFIDFSAPDLNGNMVQLSEQIRGKVALIDLWASWCGPCRTTSKQLIPIYEKYKDRGFTVIGVAREQNSDIRMREAIRKDGYPWLNLIELNDVQQIWSKYRIPNAAGGTFLVNAQGIILAVNPTAEEVERILQKELEGHHHHHH,not soluble
13,MSLSSLDAVLSQDLIVADGPAVEVGDSLEVAYTGWLFQNHVLGQVFDSTANKDKLLRLKLGSGKVIKGWEDGMLGMKKGGKRLLIVPPACAVGSEGVIGWTQATDSILVFEVEVRRVKFAREGHHHHHH,not soluble
14,MSLSSPTADVEKLRRIIEVARGDRRADFVVKNAQIVDLVNEEIFEGDIAVAEGFIAGIGSYSGVEECEASNLVAVPGLIDAHTHIEMSMLTVSEFARLVVPRGTTGVVADPHEIANVLGKDGVMLMLEEARSTPLRFYCMVPSCVPSSPLETSGARIGVEEIRELLEEEEVLGLAEMMNFPGVVSADREVLEKIVLAGIVDGHAPGLRGKKLNAYIAAGASSDHETTSFEEGKEKLRLGMWVMIREGSAARNLVALKGLTGNRHTMLVTDGDRSVKDIIEEGYLDHVFRRAIEEGIDEIKALQMLTLNPAEYFGINAGLIAPSRLADIVLLKNLRKFEVRDVFVGGRRPEFKRFNHPEWAKKTVKARKITPESIQLKTGRVRVIEVYDGEIVTGEAIEEVQGVDVERDILKAVVVERHIRSGRVGKAYVRGFGLKRGAIAQSIAHDAHNIVCVGVDDGSICAAVNRVIELQGGIVVADAEVRAELPLPIAGIMSDERAERVLERLSEIEEEVRKLGCRLKSPVITLSFIALPVIPKLKLTDLGLVDVEAFRVVDLQADEGHHHHHH,not soluble
15,MSLSSSCIEEVSVPDDNWYRIANELLSRADITINGSAPSDIRVKNPDFFKRVLQEGSLGLGESYMDGWWECERLDIFFSKVLRAGLENQLPHHVKDTLRILGARLINLQSKKRAWIVGKEHYDLGNDLFSRMLDPYMQYSCAYWKDADTLEAAQQAKLKLICEKLQLQPGMRVLDIGCGWGGLSQYMATHYGVSVVGVTISAEQQKMAQTRCEGLDVSILLEDYRDLNDQFDRIVSVGMFEHVGPKNYNTYFEVVDRNLKPDGLFLLHTIGSKKTDHNVDPWINKYIFPNGCLPSVRQIAEASESHFVMEDWHNFGADYDTTLMAWHERFINAWPEIAGNYNERFKRMFSYYLNACAGAFRARDIQLWQVVFTRGVENGLRVPREGHHHHHH,soluble
16,MSLSTFPTALAVAVSVPSSLTPQDFSWRKFKLKRNVKISRNFEFAISCSGDRAASIGFDVPFPKDYTELLQQVFILFAFSPLKIGGWGSRNRGGITREIKAKEATELALKDNRQLMEIEFPTAGLGSVPGDGEGGIEMTGSIQLIREFCDLLVIPEKATKTRIFFPEANEVKFARQSIFGGASFKLDYLTKPSFFEDFGFTEKVKMADRVKPEDELFIVAYPYFNVNEMLVVEELYQAAVLNTSRKLIIFNGELDRIRSDYPPFFYPKLAALSKTLFPKMETVYYIHNFKGRNGGVLFRCYPGPWKVFRRVGSTNICLHQQESMPSLKEVALDILPSAEGHHHHHH,not soluble
17,MSLSTLLISAPHLAFKIIATGVSLPPDRVESSTLDRKLNKPVGYVEQRSGVRHRYHATADANQAELAAAALHDALERHGINPSSIDLLISASAIAYQALPCTAVHILKIAGLAPRIAGFDINSSCVSFISALQVAAGLLNAGTYQRIAIVSADLASRGIDWNDEESSLIFGDGAACAIVERGDGRSGILASLVEMYPTGSELCEIRAGGTRCNPRSGMDNDDFLFHMQGKRLFRQASGIIEDYFQRLLEKSGLTLADIATVIPHQASHLSLAHMRKRLHVPTDVLVDIYRDHGNQVAASIPTALHAAVMSGRFSPGKPVMLIGTAAGLTLAGMVLLEGHHHHHH,not soluble
18,MSLSTLQAELASAKTEYEAKELEIRNLFSEKNTQERRLQTLVAQVAAKRKELSNALSQSSAETLTSELQSLESQYQACQTLINNISNYLTVKAGLDKKNASELVERAQKNLLNFIYNSIKSELKVLTDEQVELMKDFVVIEKLIRSELSDSVRQSYFLGCVFDELYGQLKGSDFTSHKEKMLKKYDAESSIG,soluble
